According to the nanobody polyreactivity screen of Harvey et al. (2022):

Test: yeast display, Sf9 membrane polyspecificity reagent, FACS + sequencing; frameworks hold sequencing errors
In short: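 Nanobodies from a synthetic yeast display library (Saccharomyces cerevisiae BJ5465), induced 36–48 hours with galactose, were stained 1 hour at 4 °C with 10% biotinylated, detergent-solubilized Sf9 membrane reagent, enriched on streptavidin microbeads, then FACS-sorted. Anti-HA (expression) and streptavidin (reagent binding) fluorescence set low and high (top ~1%) gates. Polyreactivity labels come from the gate of origin. Genes were colony-PCR amplified, MiSeq 2 × 250 sequenced and filtered by CDR length.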

Row | Sequence | polyreactivity (PSR sort gate)
1 | QVQLVESGGGLVQAGGSLRLSCAASGSIIGGYAMGWYRQAPGKERELVAAITRSGGRTYYADSVKGRFTISRDNAKNTVYLQMNSLKPEDTAVYYCNADRRRRFGYWGQGTQVTVSS | high polyreactivity
2 | QVQLVESGGGLVQAGGSLRLSCAASGSIIGRNAMGWYRQAPGKERELVAAISTRGGRTYYADSVKGRFTISRDNAKNTVYLQMNSLKPEDTAVYYCADTYQYLKSGYYWGQGTQVTVSS | high polyreactivity
3 | QVQLVESGGGLVQAGGSLRLSCAASGSIIGRYAMGWYRQAPAKERELVATITFRDTSTYYADSVKGRFTISRDNAKNTVYLQMNSLKTEDTAVYYCAAVRADLWDIARYDYWGQGTQVTVSS | low polyreactivity
4 | QVQLVESGGGLVQAGGSLRLSCAASGSIIGTYAMGWYRQAPGKERELVAAISSSGGRTYYADSVKGRFTISRDNAKNTVYLQMNSLKPEDTAVYYCNTRPGTVFRAGGDYWGQGTQVTVSS | high polyreactivity
5 | QVQLVESGGGLVQAGGSLRLSCAASGSIIHRNAMGWYRQAPGKERELVATITSNGGSTYYADSVKGRFTISRDNAKNTVYLQMNSLKPEETAVYYCARKYRSPISALLTGDYWGQGTQVTVSS | low polyreactivity
6 | QVQLVESGGGLVQAGGSLRLSCAASGSIIKWNAMGWDRKAPGQEREFVASITRSGGSTYYADSVKGRITISRDNAKNTVYLQMNSRKPEDTAVFYCARSYGWYRWAGYDYWGKGTQVTVSS | high polyreactivity
7 | QVQLVESGGGLVQAGGSLRLSCAASGSIIPLYAMGWYRQPPGKERELVAAITSNGGRTYYADSVKGRFTISRDNAKNTVYLQMNSLKPEDTAVYYCNKYLLDYRRGRSDYWGQGTQVTVSS | low polyreactivity
8 | QVQLVESGGGLVQAGGSLRLSCAASGSIIQYYAMGWYRQAPGKERELVASITWSGGSTYYADSVKGRFTISRDNAKNTVFLQMNSLKPEDTAVYYCAKRLYLKTWAASTADDYWGQGTQVTVSS | low polyreactivity
9 | QVQLVESGGGLVQAGGSLRLSCAASGSIIRRNVMGWYRQAPGKERELVAASSWSGDRTYYADSVKGRFTISRDNAKNTVYLQMNSLKPEDTAVYYCAAANASPRRYGQYDYWGQGTQVTVSS | high polyreactivity
10 | QVQLVESGGGLVQAGGSLRLSCAASGSIIRYNAMGWYRQAPGKERELVAAITKGAGSTYYADSVKGRFTISRDNAKNTVYLQMNSLKPEDTAVYYWNKARGSGHTYYSWGLGTQVTVSS | high polyreactivity
11 | QVQLVESGGGLVQAGGSLRLSCAASGSIISYYAMGWYRQAPGKERELVAAITASGGSTYYADSVKGRFTISRDNAKNTVYLQMNSLKPEDTAVYYCAAGTHTDYGRYYYWGQGTQVTVSS | low polyreactivity
12 | QVQLVESGGGLVQAGGSLRLSCAASGSIITPNAMGWYRQAPGQERELVAAISSGGSTNYADSVKGRITISRDNAKNTVYFQLTCLKPEDTAVYYCAKSIDGWYWRRRRYDYWGQGTQVTVSS | low polyreactivity
13 | QVQLVESGGGLVQAGGSLRLSCAASGSIITRNAMGWYRQAPGKERELVATIRYRGGSTYYADSVKGRFTISRDNAKNTVFLQMNSLKPEDTAVYYCAARRSHPPDPRFRYGYWGQGTQVTVSS | high polyreactivity
14 | QVQLVESGGGLVQAGGSLRLSCAASGSIITWNAMGWYRQAPGKERELVAAIDWDGGSTYYADSVKGRFTISRDNAKNTVYLQMNSLKPEDTAVYYCAATYGWYTGRYPSGHYYYWGQGTQVTVSS | low polyreactivity
15 | QVQLVESGGGLVQAGGSLRLSCAASGSIITYYAMGWYRQAPGKDSELVAVISASGGRTYYADSVKGRFTISRDNAKNTVYLQMISLKPEDTAVYYCAAYQSIYSFKFGYWGQGTQVTVSS | high polyreactivity
16 | QVQLVESGGGLVQAGGSLRLSCAASGSIIVRYAMGWDRQAPGKERELVAAISKSGGSTHYADSVKGRFTISRDNAKNTVYLQMNSLKPEDTAVYYCAAVYYYRFTTYYYWGQGTQVTVSS | high polyreactivity
17 | QVQLVESGGGLVQAGGSLRLSCAASGSIIVRYAMGWYRQAPGKERELVATITFRDTSTYYADSVKGRFTISRDNAKNTVYLQMNSLKPEDTAVYYCAAVRADLWDIARYDYWGQGTQVTVSS | low polyreactivity
18 | QVQLVESGGGLVQAGGSLRLSCAASGSIIVTYAMGWYRQAPGKERELVATISGGGSTTYADSVKGRFTISRDNAKNTVYLQMNSLKPEDTAVYYCATDARYTSHRTAGYDYWGQGTQVTVSS | low polyreactivity
19 | QVQLVESGGGLVQAGGSLRLSCAASGSIIVYYAMGWYRQAPGKERELVAAIRVRGGSTYYADSVKGRFTISRDTAKNTVYLQMNSLKPEDTAVYYCATAGRYGRYRTNAYRSKYDYWGQGTQVTVSS | high polyreactivity
20 | QVQLVESGGGLVQAGGSLRLSCAASGSIIWLYAMGWYRQAPGKERELVAAISSGGSTYYADSVKGRFTISRDNAKNTVYLQMNSLKPEDTAVYYCNVDYWQPWQYDYWGQGTQVTVSS | high polyreactivity
21 | QVQLVESGGGLVQAGGSLRLSCAASGSIIYHYAWGWYRQAPGQERELVDAITRCGGSTYYADSVKGRFTISRDNAKNTVYLQMHSLKPEDTAVYYCAREAGRYAYKYYWWQRTDYDYGGQGTQVTVSS | low polyreactivity
22 | QVQLVESGGGLVQAGGSLRLSCAASGSIIYLYTMGWYRQAPGKERELVAAISSSGSSTYYADSVKGRFTISRDNAKNTVYLQMNSLKPEYTSVYYCAARYSYDSYYWGKGTQVTVSS | high polyreactivity

Row | Sequence | polyreactivity (PSR sort gate)
23 | QVQLVESGGGLVQAGGSLRLSCAASGSILAYYGMGWYRQAPGKEREFVAAISNRGGSTYYADSVKGRFTISRDNAKNTVYLQLNSLKPEDTAVYYCARELYRRVWHHWAYWAAYDYWGQGTQVTVSS | low polyreactivity
24 | QVQLVESGGGLVQAGGSLRLSCAASGSILDGYVMGWYRQAPGKDRELVAAISTNSDRTYYADSVKGRFTISRDNAKNTVDLQMNSLKPEDTAVYYCNARKLRRAGFPYDYWGQGTQVTVSS | high polyreactivity
25 | QVQLVESGGGLVQAGGSLRLSCAASGSILDSNAMGWYRQAPGKERELVAAITSGGSTYYADSVKGRFTISRDNAKNTVYLLMNSLKPEDTAVYYCAAAYLGYGAVQPSYEGGYWGQGTQVTVSS | low polyreactivity
26 | QVQLVESGGGLVQAGGSLRLSCAASGSILDYKVMGWYRQPPGKERELVAAIRGGGSTYYADSVKGRFTISRDNAKNTVYLQMNSLKPEVTAVYYCAKDSQTARDFDYWGQGTQVTVSS | low polyreactivity
27 | QVQLVESGGGLVQAGGSLRLSCAASGSILESNVMGWYRQAPGKERELVASISSSGDSTYADSVKGRFTISRDNAKNTVYLQMNRLKPEDTAVYYCASDRLYWTYALYYWGQGTQVNVSS | low polyreactivity
28 | QVQLVESGGGLVQAGGSLRLSCAASGSILEYYAMGWYRQAPGKERELVAGISSAGNTYYADSVKGRFTISRDNAKNTVYLQMNSLKPEDSAVYYCAAVPWSGEYDYWGQATQVTVSS | low polyreactivity
29 | QVQLVESGGGLVQAGGSLRLSCAASGSILFVYAMGWYRQAPGKERELVAGINSSGTSTYADSVKGRFTISRDNAKNTVYLQMNSLKPEDTAVYYCAARWFYYRWAYDYWGQGTQVTVSS | low polyreactivity
30 | QVQLVESGGGLVQAGGSLRLSCAASGSILFYNTMGWYRQAPGKERELVASITSGGSTKYADSVKGRFTISRDNAKNTVYLQMNSLKPEDTAVYYCNADRRFYSIYRWHHYYWGQGTQVTVSS | low polyreactivity
31 | QVQLVESGGGLVQAGGSLRLSCAASGSILGDYAMGWYRQAPGSEREFVAAIDGSDGSTYYADSVKGRFTISRDNAKNTVYLQMNSLKPEDTAVYYCAATDYDTYRSSWYDYWGQGTQVTVSS | low polyreactivity
32 | QVQLVESGGGLVQAGGSLRLSCAASGSILGGNAKGWYRQAPGKERELVAAITFSGGGTYYADSVKGRFTISRDNAKNTVYLQMNSLKPEDTAVYYCAADKDGYTYEFDYWGQGTQVTVSS | low polyreactivity
33 | QVQLVESGGGLVQAGGSLRLSCAASGSILGLNAMGWYRQAPGKERELVASISRRGGSTRYADSVKGRFTISRDNAKNTVYLQMNSLKPEDTAVYYCNAYHWDGDGVFYEYDYWGQGTQVTVSS | high polyreactivity
34 | QVQLVESGGGLVQAGGSLRLSCAASGSILGPYAMGWYRQAPGKERELVAAISWGGGSTYYADSVKGRFTISRDNAKNTVYLQMNSLKPEDTAVYYCAADFGYYDYDYWGQGTQVTVSS | low polyreactivity
35 | QVQLVESGGGLVQAGGSLRLSCAASGSILGTYAMGWYRPAPGKESELVAAISSSGRTSYADTVKGRFTNSRDNAKNTVYLQMKSLKPEDTAVYYCNASNYIVLINDPDAAPWVYDYWGPGTQVTVSS | low polyreactivity
36 | QVQLVESGGGLVQAGGSLRLSCAASGSILGYYAMGWYRQAPGKERELVAGIDYSAGSTYYADSVKGRFTISRDNAKNTVYLQMNSLKPEDTAVYYCAADVDSYWGTYDYWGQGTQVTVSS | low polyreactivity
37 | QVQLVESGGGLVQAGGSLRLSCAASGSILGYYAMGWYRQAPGTEREFVAAITRSGSRTYYADSVKGRFTISRDNAKNTVNLHMNSLKPEDTAVYYCAKKGLFQGWPTLVDYWGEGTQVTVSS | high polyreactivity
38 | QVQLVESGGGLVQAGGSLRLSCAASGSILGYYAMRWYRQAPGKERELVAAITASGGSTYYADSVKGRFTISRDNAKNTVYLQMNSLKPEDTAAYYCAAQYYATYGYWGQGTQVTVSS | low polyreactivity
39 | QVQLVESGGGLVQAGGSLRLSCAASGSILHLYAMGWYRQAPGKERELVARINSGGTTNYADSVKGRFTISRDNAKNTVYLQMNSLKPEDTAVYYCAARFTPFITSDDGHYDYWGQGTQVTVSS | low polyreactivity
40 | QVQLVESGGGLVQAGGSLRLSCAASGSILIPNAMGWYRQAPGKERELVASISKSGGSTYYADSVKGRFTISRDNAKNTVYLPKNSLKPEDTAVYYCAAAFVSVRKRYGYWGQGTQVTVSS | high polyreactivity
41 | QVQLVESGGGLVQAGGSLRLSCAASGSILIYNAMGWYRQAPGKERELVAGISRRGASTYYADSVKGRFTISRDNAKNTVYLQMNSLKPEDTAVYYCAALGKYIVAWSGDYWGHGTQVTVSS | low polyreactivity
42 | QVQLVESGGGLVQAGGSLRLSCAASGSILLRYAMGWYRQAPGKEWELVAAIRTIGASTYYADSVKGRFTISRYNAMITVYLQMNSLKPDDTAVYYCNAESASYWYRPGYDYWGQGNQVTVSS | low polyreactivity
43 | QVQLVESGGGLVQAGGSLRLSCAASGSILLTNTMGWYRQAPGKERELVADINSGASTNYADSVKGRFTISRDNAKNTVYLQMNSLKPEDTAVYYCAADTKGGTYEYDYWGQGTKVTVSS | low polyreactivity
